B1: Streptococcal protein G variant tagged with two cysteine residues at the N-terminus (other)
chain: MCCDDDDKLKGETTTEAVDAATAEKVFKQYANDNGVDGEWTYDDATKTFTVTETYKLVIDGKTLKGETTTKAVDAETAEKAFKQYADDDGVDGVWTYDDATKTFTVTEHHHHHH
notes: Immobilised by its thiol groups on gold film, gold nano-particles or maleimide glass; also called cys2-G; protein produced from plasmid pET-cys2-L-proteinG
B2: Streptococcal protein G variant tagged with three cysteine residues at the N-terminus (other)
chain: MCCCDDDDKLKGETTTEAVDAATAEKVFKQYANDNGVDGEWTYDDATKTFTVTETYKLVIDGKTLKGETTTKAVDAETAEKAFKQYADDDGVDGVWTYDDATKTFTVTEHHHHHH
notes: Immobilised by its thiol groups on gold film, gold nano-particles or maleimide glass; also called cys3-G; protein produced from plasmid pET-cys3-L-proteinG
B3: Streptococcal protein G variant tagged with one cysteine residue at the N-terminus (other)
chain: MCDDDDKLKGETTTEAVDAATAEKVFKQYANDNGVDGEWTYDDATKTFTVTETYKLVIDGKTLKGETTTKAVDAETAEKAFKQYADDDGVDGVWTYDDATKTFTVTEHHHHHH
notes: Immobilised by its thiol group on gold film, gold nano-particles or maleimide glass; also called cys1-G; protein produced from plasmid pET-cys1-L-proteinG

Experiments:
[1] = target: T1, streptavidin-Cy3 from Streptomyces avidinii (S6420 SIGMA-ALDRICH) (Streptomyces avidinii, UniProt P22629 37-163, limits assumed, Cy3 label); assay: microarray on maleimide glass carrying the protein G variant, fluorescence scanner
T1 construct: Control protein of the microarray experiment; also called control
Description: A glass surface was immersed in a piranha solution (sulfuric acid:hydrogen peroxide, 3:1 v/v) and allowed to react in an oven at 90° C. for 20 minutes. After the reaction, the glass surface was washed with water and ethanol, and then was immersed in ethanol containing 1% APTS ((3-Aminopropyl)trimethoxysilane, 09326, SIGMA-ALDRICH) for 15 to 20 minutes to react, so as to provide an aminated surface. After completion of the reaction, the glass surface was washed with ethanol, and subsequently heated in an oven at 100° C. until the time of use. The prepared aminated surface was immersed in a 10 mM solution of BMPS (N-[b-Maleimidopropyloxy]succinimide ester, 22298, PIERCE, USA) dissolved in DMSO (dimethyl sulfoxide, D2650, SIGMA-ALDRICH) to react for about 30 minutes. The maleimide groups provided on the final glass surface, which groups would be covalently bonded to SH groups, were reacted with Streptococcal protein G variants tagged with one, two or three cysteine residues on the glass surface to immobilize the protein. On the surface where a series of Streptococcal protein G variants were immobilized, an antibody labeled with a fluorescent labeling substance, monoclonal anti-biotin Cy3 (C5585, SIGMA-ALDRICH), and a control, streptavidin-Cy3 (streptavidin-Cy3 from Streptomyces avidinii, S6420 SIGMA-ALDRICH) were arranged into an array using a microarrayer, and then the degree of specific protein binding and the effect of non-specific binding were measured using a fluorescence scanner. As a result, no fluorescent signal of Streptavidin-Cy3 (1 mg/ml) was detected, and since the fluorescent signal increased with an increase in the concentration of the antibody, Monoclonal anti-biotin Cy3, it was confirmed that the antibody reactions with Streptococcal protein G variants tagged with one, two and three cysteine residues were specifically achieved. Also, when the antibody was reacted after allowing the Streptococcal protein G variants to react at the same concentration, the reaction occurred at a low concentration of the antibody with a high binding power. […]

[2] = target: T2, human IgG (Sigma) (human); assay: SPR (BIAcore); protein G variant layer on gold thin film, human IgG 100 ug/ml injected
T2 construct: also called human antibody; antibody (100 µg/ml, human IgG, Sigma)
Description: A gold thin film chip was treated with a mixed solution (65° C.) of 95% sulfuric acid and 30% aqueous hydrogen peroxide (volume ratio 3:1) for 30 minutes, and then the chip was washed sequentially with double distilled water, ethanol and double distilled water. Subsequently, the chip was dried with nitrogen gas and mounted on a BIA-core surface plasmon resonance sensor. 150 μl each of 200 μg/ml solutions of recombinant proteins tagged with one, two and three cysteine residues, respectively, and of an untagged recombinant protein were introduced to the gold thin film surface of the mounted chip at a flow rate of 5 μl/min, so as to immobilize the proteins. After reacting the gold thin film surface and the aforementioned proteins, 100 μl of BSA (3 mg/ml) was introduced at a flow rate of 5 μl/min to prevent non-specific reactions. Subsequently, 100 μl of an antibody (100 μg/ml, human IgG, Sigma) was introduced at a flow rate of 5 μl/min to produce a biosensor in which protein G variant and the antibody were immobilized on a gold thin film, and the changes in the plasmon resonance signals were measured (FIG. 5).

[3] = target: T3, anti-human Kallikrein 3/PSA antibody (R&D systems); assay: SPR (BIAcore); protein G variant layer on gold thin film, anti-PSA antibody 0.5 ug/ml injected
T3 construct: also called antibody against PSA
Description: Then, antigens (Recombinant Human kallikrein 3/PSA, 0.5 μg/ml) were reacted with the antibodies. As a result, the change in the surface plasmon resonance signals of the untagged recombinant protein increased by 7 RU, the same change of the recombinant protein tagged with one cysteine residue increased by 49 RU, the same change of the recombinant protein tagged with two cysteine residues increased by 41 RU, and the same change of the recombinant protein tagged with three cysteine residues increased by 74 RU.
A gold thin film chip was treated with a mixed solution (65° C.) of 95% sulfuric acid and 30% aqueous hydrogen peroxide (volume ratio 3:1) for 30 minutes, and then the chip was washed sequentially with double distilled water, ethanol and double distilled water. Subsequently, the chip was dried with nitrogen gas and mounted on a BIA-core surface plasmon resonance sensor. 150 μl each of 200 μg/ml solutions of recombinant proteins tagged with one, two and three cysteine residues, respectively, and of an untagged recombinant protein (control) were introduced to the gold thin film surface of the mounted chip at a flow rate of 5 μl/min, so as to immobilize the proteins. After reacting the gold thin film surface and the aforementioned proteins, 100 μl of BSA (3 mg/ml) was introduced at a flow rate of 5 μl/min to prevent non-specific reactions. Subsequently, 100 μl of an antibody (0.5 μg/ml, anti-human Kallikrein 3/PSA antibody, R&D systems) was introduced at a flow rate of 5 μl/min, and the biosensor with immobilized antibody and 50 μl of an antigen (0.5 μg/ml, Recombinant Human Kallikrein 3/PSA) were allowed to react. Then, changes in the plasmon resonance signal was detected (FIG. 8).

Binder | binding result [1] | change in surface plasmon resonance signal [2] [RU] | fold increase of SPR signal change against the untagged recombinant protein [2] [times] | change in surface plasmon resonance signal [3] [RU]
B1 | no binding (tested: 1 mg/ml) | 3200 | ~3.2 | 376
B2 | no binding (tested: 1 mg/ml) | 4800 | ~4.8 | 491
B3 | no binding (tested: 1 mg/ml) | 4000 | ~4 | 472

From patent US20100173430A1 (KOREAN RESEARCH INSTITUTE OF BIOSCIENCE AND BIOTECHNOLOGY, published 2010)
